Measured values published in patent EP4803151A2 (Lepu Biopharma Co., Ltd., dated 2026).

T1: ECD of human DLL3 over-expressed on HEK293 cells (human, UniProt Q9NYJ7 27-492)
T1 construct: extracellular domain; also called HEK293-hDLL3; human DLL3 expressed on HEK293 cells
T1 sequence (looked up): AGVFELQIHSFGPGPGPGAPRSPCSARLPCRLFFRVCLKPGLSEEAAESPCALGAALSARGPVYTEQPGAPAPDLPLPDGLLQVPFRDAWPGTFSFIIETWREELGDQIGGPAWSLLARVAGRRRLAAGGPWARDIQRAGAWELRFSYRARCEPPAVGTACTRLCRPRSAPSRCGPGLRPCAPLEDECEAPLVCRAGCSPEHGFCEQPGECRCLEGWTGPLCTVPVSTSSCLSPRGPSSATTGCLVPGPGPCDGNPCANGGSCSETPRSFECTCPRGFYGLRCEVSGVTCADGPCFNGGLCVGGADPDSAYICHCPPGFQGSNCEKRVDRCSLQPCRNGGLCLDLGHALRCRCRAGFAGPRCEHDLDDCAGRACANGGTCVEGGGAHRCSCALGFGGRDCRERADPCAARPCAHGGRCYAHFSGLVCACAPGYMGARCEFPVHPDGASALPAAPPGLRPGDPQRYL

T2: ECD of human DLL3 protein fused with his tag (Acro Bio, Cat. No. DL3-H52H4) (human, UniProt Q9NYJ7 27-492)
T2 construct: range 27-492; Bought protein; also called hDLL3-his; human DLL3-his protein; not shown: his tag
T2 sequence (looked up): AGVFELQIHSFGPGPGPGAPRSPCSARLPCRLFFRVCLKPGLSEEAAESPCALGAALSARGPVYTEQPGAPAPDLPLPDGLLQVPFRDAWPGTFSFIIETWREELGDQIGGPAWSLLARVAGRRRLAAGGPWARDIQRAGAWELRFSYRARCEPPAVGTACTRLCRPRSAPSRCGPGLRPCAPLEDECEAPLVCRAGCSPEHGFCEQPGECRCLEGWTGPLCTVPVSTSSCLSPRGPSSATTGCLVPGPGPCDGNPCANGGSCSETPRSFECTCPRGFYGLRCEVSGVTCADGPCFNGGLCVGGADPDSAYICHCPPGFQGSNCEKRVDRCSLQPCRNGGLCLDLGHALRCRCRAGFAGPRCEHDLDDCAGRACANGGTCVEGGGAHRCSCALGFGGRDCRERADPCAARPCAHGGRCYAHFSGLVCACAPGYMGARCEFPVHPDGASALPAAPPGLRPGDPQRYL

T3: human DLL3 endogenously expressed on SCLC tumor cell lines SHP77 and NCI-H82 (human, UniProt Q9NYJ7 27-618)
T3 construct: whole, on cells; also called human DLL3 expressed on tumor cells
T3 sequence (looked up): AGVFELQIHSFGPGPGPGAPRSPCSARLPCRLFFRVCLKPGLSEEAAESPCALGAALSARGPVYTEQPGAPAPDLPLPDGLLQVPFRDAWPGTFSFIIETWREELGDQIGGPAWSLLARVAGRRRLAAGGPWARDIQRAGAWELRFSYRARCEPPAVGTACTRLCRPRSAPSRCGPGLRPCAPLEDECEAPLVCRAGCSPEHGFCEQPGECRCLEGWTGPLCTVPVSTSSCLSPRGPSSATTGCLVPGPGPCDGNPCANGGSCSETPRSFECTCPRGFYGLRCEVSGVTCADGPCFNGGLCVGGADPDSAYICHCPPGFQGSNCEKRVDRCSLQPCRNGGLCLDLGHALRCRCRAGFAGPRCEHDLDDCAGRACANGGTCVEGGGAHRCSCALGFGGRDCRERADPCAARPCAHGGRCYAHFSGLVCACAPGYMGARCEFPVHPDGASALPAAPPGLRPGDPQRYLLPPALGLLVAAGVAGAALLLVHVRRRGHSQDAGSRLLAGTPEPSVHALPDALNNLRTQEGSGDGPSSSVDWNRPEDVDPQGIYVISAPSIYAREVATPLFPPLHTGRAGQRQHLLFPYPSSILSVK

T4: human full length DLL1 expressed on CHO-K1 cells (human, UniProt O00548 18-723)
T4 construct: whole, on cells; also called CHO-K1-hDLL1
T4 sequence (looked up): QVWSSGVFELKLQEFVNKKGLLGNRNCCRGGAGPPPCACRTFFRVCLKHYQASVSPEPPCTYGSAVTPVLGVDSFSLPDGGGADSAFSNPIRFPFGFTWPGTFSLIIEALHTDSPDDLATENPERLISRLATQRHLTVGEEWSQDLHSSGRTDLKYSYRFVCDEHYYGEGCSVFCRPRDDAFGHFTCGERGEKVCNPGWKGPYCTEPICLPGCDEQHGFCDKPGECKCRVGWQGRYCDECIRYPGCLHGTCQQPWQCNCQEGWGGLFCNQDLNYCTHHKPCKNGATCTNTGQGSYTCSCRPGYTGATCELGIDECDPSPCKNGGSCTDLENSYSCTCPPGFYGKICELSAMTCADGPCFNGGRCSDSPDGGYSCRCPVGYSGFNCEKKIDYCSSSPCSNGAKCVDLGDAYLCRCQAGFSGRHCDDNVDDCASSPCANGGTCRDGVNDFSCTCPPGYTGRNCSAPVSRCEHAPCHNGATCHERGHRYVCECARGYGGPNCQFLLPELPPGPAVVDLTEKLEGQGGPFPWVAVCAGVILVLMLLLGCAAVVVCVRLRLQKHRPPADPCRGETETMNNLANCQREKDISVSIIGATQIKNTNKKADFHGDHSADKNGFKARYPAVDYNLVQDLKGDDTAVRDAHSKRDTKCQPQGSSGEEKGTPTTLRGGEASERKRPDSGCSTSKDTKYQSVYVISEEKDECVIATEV


Legend:
[1] = target: T1, ECD of human DLL3 over-expressed on …; experiment: flow cytometry on HEK293-hDLL3 cells
[2] = target: T2, ECD of human DLL3 protein fused with …; experiment: ELISA, hDLL3-his coated
[3] = target: T3, human DLL3 endogenously expressed on …; experiment: flow cytometry on SHP77 and NCI-H82 cells
[4] = target: T4, human full length DLL1 expressed on …; experiment: flow cytometry on CHO-K1-hDLL1 cells
[5] = target: T5, human full length DLL4 expressed on CHO-K1 cells (human, UniProt Q9NR61 27-685); experiment: flow cytometry on CHO-K1-hDLL4 cells
T5 construct: whole, on cells; also called CHO-K1-hDLL4
T5 sequence (Q9NR61 27-685): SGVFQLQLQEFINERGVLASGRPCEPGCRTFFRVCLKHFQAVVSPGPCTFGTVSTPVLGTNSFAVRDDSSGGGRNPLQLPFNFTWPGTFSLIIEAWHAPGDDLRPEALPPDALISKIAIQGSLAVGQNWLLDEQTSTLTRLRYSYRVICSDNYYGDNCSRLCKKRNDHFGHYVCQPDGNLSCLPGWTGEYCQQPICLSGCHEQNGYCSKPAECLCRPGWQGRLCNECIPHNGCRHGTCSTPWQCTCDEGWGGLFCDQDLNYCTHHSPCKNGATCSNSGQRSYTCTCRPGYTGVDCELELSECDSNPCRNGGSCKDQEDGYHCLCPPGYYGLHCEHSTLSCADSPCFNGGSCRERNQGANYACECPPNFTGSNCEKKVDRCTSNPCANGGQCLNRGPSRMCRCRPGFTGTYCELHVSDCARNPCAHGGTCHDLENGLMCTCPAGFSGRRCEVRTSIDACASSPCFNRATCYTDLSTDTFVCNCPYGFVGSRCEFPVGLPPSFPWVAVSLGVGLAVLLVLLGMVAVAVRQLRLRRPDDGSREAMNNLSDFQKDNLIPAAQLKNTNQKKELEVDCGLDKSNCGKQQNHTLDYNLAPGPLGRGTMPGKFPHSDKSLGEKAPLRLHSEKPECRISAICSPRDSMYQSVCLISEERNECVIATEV

Binder | binding result [1] | binding result [2] | binding result [3] | binding result [4] | binding result [5]
310P3C5-z8 humanized antibody (antibody, human IgG1, kappa, V domains shown, HU-VH1-4 with HU-VL1-2; human IgG1) VH: QVQLVQSGAEVKKPGASVKVSCKASGYTFTDFYMNWVRQAPGQGLEWIGDANPNNGGTTHNPRFKGQATLTVDKSTSTAYMELRSLRSDDTAVYYCARGGLPGDFDYWGQGTTVTVSS VL: DIQMTQSPSSVSASVGDRVTITCKASEDIYNRLAWYQQKPGKAPKLLISGVTSLETGVPSRFSGSGSGTDFTLTISSLQPEDFATYYCQQYWSFPWTFGGGTKVEIKR | binds | binds | binds | no binding | no binding
310P3C5-z15 humanized antibody (antibody, human IgG1, kappa, V domains shown, human IgG1) VH: QVQLVQSGAEVKKPGASVKVSCKASGYTFTDFYMNWVKQAPGQGLEWIGDANPNNGGTTHNPRFKGRATLTVDKSASTAYMELRSLRSEDTAVYYCARGGLPGDFDYWGQGTTVTVSS VL: DIQMTQSPSSLSASVGDRVTITCKASEDIYNRLAWYQQKPGKAPKLLISGVTSLETGVPSRFSGSGSGTDFTFTISSLQPEDIATYYCQQYWSFPWTFGGGTKVEIKR | binds | binds | binds | no binding | no binding
310P3C5-z14 humanized antibody (antibody, human IgG1, kappa, V domains shown, HU-VH2 with HU-VL1-1; human IgG1) VH: QVQLVQSGAEVKKPGASVKVSCKASGYTFTDFYMNWVKQAPGQGLEWIGDANPNNGGTTHNPRFKGRATLTVDKSASTAYMELRSLRSEDTAVYYCARGGLPGDFDYWGQGTTVTVSS VL: DIQMTQSPSSVSASVGDRVTITCKASEDIYNRLAWYQQKPGKAPKLLIYGVTSLETGVPSRFSGSGSGTDFTLTISSLQPEDFATYYCQQYWSFPWTFGGGTKVEIKR | binds | binds | binds | no binding | no binding

Now from value to binder:

binding result [1] | binding result [2] | binding result [3] | binding result [4] | binding result [5] | Binder
binds | binds | binds | no binding | no binding | 310P3C5-z12 humanized antibody (antibody, human IgG1, kappa, V domains shown, HU-VH1-4 with HU-VL1-3; human IgG1) VH: QVQLVQSGAEVKKPGASVKVSCKASGYTFTDFYMNWVRQAPGQGLEWIGDANPNNGGTTHNPRFKGQATLTVDKSTSTAYMELRSLRSDDTAVYYCARGGLPGDFDYWGQGTTVTVSS VL: DIQMTQSPSSVSASVGDRVTITCKASEDIYNRLAWYQQKPGKAPKLLISGVTSLETGVPSRFSGSGSGKDFTLTISSLQPEDFATYYCQQYWSFPWTFGGGTKVEIKR
binds | binds | binds | no binding | no binding | 310P3C5-z4 humanized antibody (antibody, human IgG1, kappa, V domains shown, HU-VH1-4 with HU-VL1-1; human IgG1) VH: QVQLVQSGAEVKKPGASVKVSCKASGYTFTDFYMNWVRQAPGQGLEWIGDANPNNGGTTHNPRFKGQATLTVDKSTSTAYMELRSLRSDDTAVYYCARGGLPGDFDYWGQGTTVTVSS VL: DIQMTQSPSSVSASVGDRVTITCKASEDIYNRLAWYQQKPGKAPKLLIYGVTSLETGVPSRFSGSGSGTDFTLTISSLQPEDFATYYCQQYWSFPWTFGGGTKVEIKR
